According to patent US9120851B2, “Human antibodies to human angiopoietin-like protein 4” (Regeneron Pharmaceuticals, Inc., priority 2009, dated 2015):
Numbering of substitutions follows the chain as printed. Values belong to the molecule of their own block, whether it stands above or below them.

Experiments:
[1] = Serum human Ab levels in humanized ANGPTL4 mice, ELISA; type: in vivo, mouse; parameters: unit not given here; details: mean±SEM
Description: The effect of anti-hANGPTL4 antibodies H1H268P and H1H284P on serum TG levels was determined in mice expressing the ANGPTL4 protein containing the human N-terminal coil-coil region (“humanized ANGPTL4 mice”). The humanized ANGPTL4 mouse was made by replacing first three exons of the mouse Angptl4 gene (the N terminal coil-coil region) with the corresponding human N-terminal coil-coil ANGPLT4 sequence in C57BL6/129 (F1H4) embryonic stem cells. After germ line transmission was established, heterozygous mice (ANGPTL4hum/+) were bred together to generate homozygous mice [ANGPTL4hum/hum or hANGPTL4(+/+)] on a C57BL6 background. Humanized ANGPTL4 mice were pre-bled 7 days before (day −7) the experiment and put into groups of six mice each for each antibody tested. Antibodies (H1H268P, H1H284P and isotype-matched (hIgG1) control with no known cross-reactivity to mouse antigens) were administered at 10 mg/kg dose by subcutaneous injection. Mice were bled after 4 hours of fasting at days 1, 4, 7 and 11 after antibody injection; and serum TG levels were determined by ADVIA® 1800 Chemistry System (Siemens). Average TG levels were calculated for each time point for each antibody.
Levels of circulating anti-hANGPTL4 antibodies (“serum human Ab”) were also determined using a standard ELISA assay. Briefly, plates were coated with a goat anti-human Fc antibody (Sigma-Aldrich) to capture serum human Ab. Serum was then added to the plates and captured anti-hANGPTL4 antibodies were detected by chemiluminescence using a horseradish peroxidase (HRP)-conjugated goat anti-human IgG antibody (Sigma-Aldrich).

hANGPTL4(26-406)-His = biological target: T1, hANGPTL4(26-406)-His (Homo sapiens, UniProt Q9BY76); experiment: BIACORE, full mAb or Fab over amino-coupled hANGPTL4(26-406)-His; type: binding; details: for RU bound at 50 nM mAb or Fab: amino-coupled 450 RU
T1 construct: purchased R&D Systems
T1 sequence (Q9BY76 26-406): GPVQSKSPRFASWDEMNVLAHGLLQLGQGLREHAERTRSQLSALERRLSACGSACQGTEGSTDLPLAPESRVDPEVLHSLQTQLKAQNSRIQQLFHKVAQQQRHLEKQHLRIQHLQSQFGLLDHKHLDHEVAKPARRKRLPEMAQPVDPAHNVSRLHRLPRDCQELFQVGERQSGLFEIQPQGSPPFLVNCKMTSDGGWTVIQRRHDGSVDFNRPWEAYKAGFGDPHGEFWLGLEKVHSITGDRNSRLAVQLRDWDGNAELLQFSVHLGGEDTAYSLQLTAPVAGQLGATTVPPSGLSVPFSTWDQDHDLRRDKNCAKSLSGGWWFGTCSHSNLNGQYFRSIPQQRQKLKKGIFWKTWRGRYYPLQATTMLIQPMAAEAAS
Description: (§1) Briefly, various concentrations (3.125 nM-100 nM) of anti-hANGPTL4 antibodies (i.e., H1H268 Fab, entire H1H268 mAb, H1H284 Fab, and entire H1H284 mAb) were injected over a low density anti-mFc captured hANGPTL4(26-148)-mFc (˜68±4 RU) surface, or the surface of amino-coupled hANGPTL4(26-406)-His (R&D Systems) (450 RU) or amino-coupled cynomolgus monkey N-terminal region (amino acid residues 1-130 of SEQ ID NO:490) expressed with an C-terminal hexa-histidine tag (MfANGPTL4(1-130)-His) (1,028 RU). Kinetic analysis was performed to measure ka and kd, and KD values and half-life of antigen/antibody complex dissociation were calculated. The results are shown in Table 4 (H1H268P) and Table 5 (H1H284P).

MfANGPTL4(1-130)-His = experiment: BIACORE, full mAb or Fab over amino-coupled MfANGPTL4(1-130)-His; type: binding, cynomolgus monkey; details: for Response bound at 50 nM mAb or Fab: amino-coupled 1,028 RU
Description: as §1

humanized ANGPTL4 mice = experiment: Serum TG, H4H268P2 and fenofibrate alone or in combination; type: in vivo, mouse; details: day 7; H4H268P2 10 mg/kg s.c. day 0; fenofibrate 0.05% (w/w) in chow
Description: The effects of the anti-ANGPTL4 antibody H4H268P2 and TG-reducing drug fenofibrate, each alone or in combination, on serum TG levels were evaluated in humanized ANGPTL4 mice. The mice were pre-bled 7 days before the experiment after 4 hours of fasting and put into 4 groups of six mice each. Groups 2 and 4 were administered with H4H268P2 at 10 mg/kg by subcutaneous injection on day 0 and groups 1 (control group) and 2 were placed on regular chow diet. Groups 3 and 4 received chow diet supplemented with 0.05% (w/w) of fenofibrate (the dosage level was determined experimentally in a pilot study). Serum was collected from a terminal bleed on day 7 after H4H268P2 and/or fenofibrate administration (after 4 hours of fasting) and analyzed by ADVIA® 1800 Chemistry System (Siemens).

[2] = Pharmacokinetic clearance in wild-type and hANGPTL4(+/+) mice, sandwich ELISA; type: in vivo, mouse; details: 1 mg/kg s.c.
Description: Pharmacokinetic clearance rates of anti-hANGPTL4 antibodies H4H268P2 and H4H284P were determined in wild-type mice and in transgenic mice expressing human ANGPTL4 [hANGPTL4(+/+) mice]. The strain background for both wild-type and transgenic mice was C57BL6 (75%) and 129Sv (25%). Separate cohorts consisting of 5 mice each of either wild-type or hANGPTL4(+/+) mice received subcutaneously (s.c.) 1 mg/kg of H4H268P2, H4H284P, or an isotype-matched (hIgG4) control with irrelevant specificity. Blood samples were collected at 0 hour, 6 hours, 1 day, 2 days, 3 days, 4 days, 7 days, 10 days, and 15 days, 22 days, and 30 days after the injection. Serum levels of human antibodies were determined by a sandwich ELISA. Briefly, a goat polyclonal anti-human IgG (Fc-specific) capture antibody (Jackson ImmunoResearch, PA) was coated in 96-well plates at a concentration of 1 μg/mL and incubated overnight at 4° C. After the plates were blocked with BSA, serum samples in a six-point serial dilution and reference standards of the respective antibody in a twelve-point serial dilution were added to the plate and incubated for one hour at room temperature. After washing with a suitable washing buffer, captured human antibodies were detected using the same goat polyclonal anti-human IgG (Fc-specific) antibody conjugated with horse radish peroxidase (HRP) (Jackson ImmunoResearch, PA) and developed by standard colorimetric response using tetramethylbenzidine (TMB) substrate, measuring absorbance at 450 nm in a plate reader. Concentrations of human antibodies in serum were determined using the reference standard curve generated for the same sample plate.

[3] = day 1 after injection, 10 mg/kg s.c.
[4] = day 4 after injection, 10 mg/kg s.c.
[5] = day 7 after injection, 10 mg/kg s.c.
[6] = day 11 after injection, 10 mg/kg s.c.

Sequence of MfANGPTL4(1-130)-His (as listed by the source): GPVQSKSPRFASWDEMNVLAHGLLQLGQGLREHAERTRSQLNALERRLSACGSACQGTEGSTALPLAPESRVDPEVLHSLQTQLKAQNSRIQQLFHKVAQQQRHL

ka (hANGPTL4(26-406)-His; pH 5.75, 25° C.): 923000 M⁻¹ s⁻¹
kd (hANGPTL4(26-406)-His; pH 5.75, 25° C.): 0.000446 s⁻¹
RU bound at 50 nM mAb or Fab (hANGPTL4(26-406)-His; pH 5.75, 25° C.): 45
ka (hANGPTL4(26-406)-His; pH 7.2, 25° C.): 489000 M⁻¹ s⁻¹
kd (hANGPTL4(26-406)-His; pH 7.2, 25° C.): 0.0002 s⁻¹
RU bound at 50 nM mAb or Fab (hANGPTL4(26-406)-His; pH 7.2, 25° C.): 38
kd (MfANGPTL4(1-130)-His; pH 5.75, 25° C.): 8.24e-05 s⁻¹
kd (MfANGPTL4(1-130)-His; pH 7.2, 25° C.): 4.76e-05 s⁻¹
B1: H1H268P: anti-hANGPTL4 antibody, hIgG1 isotype, HCVR/LCVR SEQ ID NOs 42/44 (antibody, V domains shown)
VH: QVQLQESGAGLLKPSETLSLTCTVYGGSFSIHHWTWIRHPPGKGLEWIGEINHRGSTNYNPSLKSRVTISIDTSKNQFSLKLSAVTAADTAVYYCARGLRFLDWLSSYFDYWGQGTLVTVSS
VL: DIQMTQSPSSLSASVGDRVTITCRASQGISDYLAWYQQKPGKVPNLLIYAASALQSGVPSRFSGSGSGTDFTLTISSLQPEDVATYYCQNYNTAPLTFGGGTKVEIK
Serum Human Antibody [1, 3]: 24130 ± 1788
Serum Human Antibody [1, 4]: 16557 ± 1369
Serum Human Antibody [1, 5]: 12586 ± 1176
Serum Human Antibody [1, 6]: 6106 ± 1111
Serum Human Antibody ([1]; day −7 (pre-bleed)): 2.92 ± 2.92
ka (MfANGPTL4(1-130)-His; pH 5.75, 25° C.): 107000 M⁻¹ s⁻¹
Response bound at 50 nM mAb or Fab (MfANGPTL4(1-130)-His; pH 5.75, 25° C.): 583
ka (MfANGPTL4(1-130)-His; pH 7.2, 25° C.): 392000 M⁻¹ s⁻¹
Response bound at 50 nM mAb or Fab (MfANGPTL4(1-130)-His; pH 7.2, 25° C.): 279

B2: H4H268P2: IgG4 version of H1H268P with a single amino acid substitution in framework region 1, HCVR/LCVR SEQ ID NOs 487/44 (antibody, V domains shown)
VH: B1 VH with E6Q
VL: B1 VL
modifications: IgG4 constant region
TG levels reduced (mean) compared to control group on chow diet (humanized ANGPTL4 mice): ~40%
Cmax ([2]; Wild-type mice): 18400 ng/mL
Cmax ([2]; hANGPTL4(+/+) mice): 13300 ng/mL
AUC ([2]; hANGPTL4(+/+) mice, over the 30-day period): 37000 ng·h/mL

ka (hANGPTL4(26-406)-His; pH 5.75, 25° C.): 1.93e+06 M⁻¹ s⁻¹
kd (hANGPTL4(26-406)-His; pH 5.75, 25° C.): 0.000272 s⁻¹
RU bound at 50 nM mAb or Fab (hANGPTL4(26-406)-His; pH 5.75, 25° C.): 101
ka (hANGPTL4(26-406)-His; pH 7.2, 25° C.): 850000 M⁻¹ s⁻¹
kd (hANGPTL4(26-406)-His; pH 7.2, 25° C.): 8.85e-05 s⁻¹
RU bound at 50 nM mAb or Fab (hANGPTL4(26-406)-His; pH 7.2, 25° C.): 77
kd (MfANGPTL4(1-130)-His; pH 5.75, 25° C.): 8.42e-05 s⁻¹
kd (MfANGPTL4(1-130)-His; pH 7.2, 25° C.): 5.83e-05 s⁻¹
B3: H1H284P: anti-hANGPTL4 antibody, hIgG1 isotype, HCVR/LCVR SEQ ID NOs 90/92 (antibody, V domains shown)
VH: QVQLVESGGGVVQPGRSLRLSCAASGFTFSSYGMHWVRQAPGKGLEWMAVISFDGGNKNNADSVKGRFTISRDNSKNTLYLQMNSLRAEDTAVYYCAKEGDRSGHPYFYYYGLDVWGQGTTVTVS
VL: DIQLTQSPSFLSASVGDRVTITCWASQGISSYLAWYQQKPGKAPKLLIYAASTLQSGVPSRFSGSGSETEFTLTISSLQPEDFATYYCQQLHSYPLTFGGGTKVEIK
Serum Human Antibody [1, 3]: 16459 ± 1455
Serum Human Antibody [1, 4]: 9103 ± 767
Serum Human Antibody [1, 5]: 2428 ± 525
Serum Human Antibody [1, 6]: 135 ± 38
Serum Human Antibody ([1]; day −7 (pre-bleed)): 3.02 ± 2.38
ka (MfANGPTL4(1-130)-His; pH 5.75, 25° C.): 1.55e+06 M⁻¹ s⁻¹
Response bound at 50 nM mAb or Fab (MfANGPTL4(1-130)-His; pH 5.75, 25° C.): 804
ka (MfANGPTL4(1-130)-His; pH 7.2, 25° C.): 467000 M⁻¹ s⁻¹
Response bound at 50 nM mAb or Fab (MfANGPTL4(1-130)-His; pH 7.2, 25° C.): 414
